Reference: publication PMC11900867
Where two headings read alike, the source gives them in different places.

Tests used:
[1] = molecular target: Coxsackievirus B3 (CVB3) 3CD protein (uncleaved 3C^pro-3D^pol) with Cys147Ala, Gly55Ala, Asp58Ala, Val63Ala (coxsackievirus B3 (CVB3)); assay: mass photometry
[2] = molecular target: Coxsackievirus B3 (CVB3) 3CD protein (uncleaved 3C^pro-3D^pol) with Cys147Ala, Gly55Ala, Asp58Ala, Val63Ala (coxsackievirus B3 (CVB3)); assay: mass photometry; remark: listed apart in the source
[3] = molecular target: Coxsackievirus B3 (CVB3) 3C^pro protease, protease-inactive mutant (Cys147Ala) with Gly55Ala, Asp58Ala, Val63Ala (coxsackievirus B3 (CVB3)); assay: SEC
[4] = molecular target: Coxsackievirus B3 (CVB3) 3C^pro protease, protease-inactive mutant (Cys147Ala) with Gly55Ala, Asp58Ala, Val63Ala (coxsackievirus B3 (CVB3)); assay: mass photometry

Substance	stoichiometry N [1]	percent of total counts in the peak of 3CD dimer with one cloverleaf RNA [2]	stoichiometry N [2]	stoichiometry N [3]	stoichiometry N [4]
Coxsackievirus B3 (CVB3) 3CD protein (uncleaved 3C^pro-3D^pol) with Cys147Ala, Gly55Ala, Asp58Ala, Val63Ala (enzyme)	2	19 to 23%	2		
Coxsackievirus B3 (CVB3) 3C^pro protease, protease-inactive mutant (Cys147Ala) with Gly55Ala, Asp58Ala, Val63Ala (enzyme)				2	2
